± gives the standard deviation of the averaged measurements.
These sequences were tested on Saccharomyces cerevisiae (assay: protein stability index of tFT-peptide fusion (C-terminal peptide) (PSI (0-1 scale)); higher = more stable (slower turnover)). Settings: genetic background: wild type; temperature: 37 C.
Experimental: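 MPS profiling in S. cerevisiae of the tFT-X12 degron library: putative degron peptides plus stable controls, 12 aa, fused to the C-terminus of a sfGFP-mCherry timer. Cells are FACS-sorted into 8 mCherry/sfGFP bins and deep-sequenced. PSI runs from 0 (unstable) to 1 (stable). Backgrounds are wild type, das1Δ and doa10Δ at 30 °C, and wild type, das1Δ, cdc34-1 and cdc53-1 at 37 °C; 2-3 technical replicates each.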
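Further: PSI is a weighted mean of sequencing reads over stability bins, variants kept only with over 10 reads, mCherry proximal and sfGFP distal, peptide attached via GGGS linker.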

Sequence	protein stability index
PIHILTHTYIGR	0.707 ± 0.013
PILRGRPTPAIL	0.7026 ± 0.0044
PLLVVPVPRALY	0.491 ± 0.038
PLYFSVFSLLFL	0.539 ± 0.013
PPLLLFLSLAFL	0.441 ± 0.009
PPPLPPPSPSRP	0.68331 ± 0.00024
PPPPPPLPSSFP	0.7063 ± 0.0068
PPPYPPPPARSL	0.6823 ± 0.0034
PPRPLHPPCRPP	0.688 ± 0.011
PPSPPLPPPSPF	0.707 ± 0.016
PPSPPPPPPSPF	0.719 ± 0.034
PRHERPPRDNGH	0.702 ± 0.022
PRPSPPLPPPSS	0.688 ± 0.017
PRRVTVPGVPPL	0.7039 ± 0.0025
PRSLHVLSRFLP	0.712 ± 0.02
PSRRLRHFATSP	0.6412 ± 0.00013
PTFSPSLPPPRS	0.67608 ± 0.00018
PVTAVYFVLYIW	0.298 ± 0.035
PYLSAPLVATLS	0.426 ± 0.0049
QDQWINTSLELS	0.711 ± 0.024
QLIDVGLLNCAA	0.5616 ± 0.0023
QWTVRNQGVMQR	0.721 ± 0.026
QYRLMQKKIVNI	0.253 ± 0.015
RAEASFFLPKVG	0.6398 ± 0.0037
RAQQRVKERYIE	0.69 ± 0.0077
RCIRRWPYILKL	0.285 ± 0.031

Sequence	protein stability index
RCSLFAKQVVSL	0.37093 ± 0.00035
RERRISRIPCLS	0.362 ± 0.028
RFHFAAPPHRPS	0.7583 ± 0.0022
RFIYYCVDVFFS	0.19 ± 0.037
RFLACSIRYLVY	0.4 ± 0.027
RFRFRRTCLYAT	0.217 ± 0.033
RGAVRVAWYPVL	0.684 ± 0.011
RGDCFLVLCVWR	0.541 ± 0.0062
RGGPPPCPLLAA	0.664 ± 0.013
RGGWVVVLGCVG	0.635 ± 0.036
RGLWAAIPRKCT	0.548 ± 0.02
RGPSQVIVAFFV	0.5674 ± 0.0018
RGSLLRWFLAAQ	0.541 ± 0.019
RGSRLVPRLLRP	0.677 ± 0.0057
RGWWWFVVVLCR	0.2951 ± 0.0014
RHIRGLNLIKLI	0.0777 ± 0.0067
RHQTDIVTATQK	0.70375 ± 0.00022
RHVFLRIKVLNL	0.5197 ± 0.0025
RIFRCYSFYVVV	0.4233 ± 0.0012
RILFSPSTFYLF	0.487 ± 0.024
RIRRVMHLYTNN	0.109 ± 0.044
RISYKTKINELI	0.5426 ± 0.003
RIVLRPPFNSVA	0.48 ± 0.0059
RKKKRNKKKMIM	0.621 ± 0.0081
RLDAPGLSRTEN	0.671 ± 0.017
RLFYRLSFVYFL	0.243 ± 0.015

Sequence	protein stability index
RLLLLLTCIIYI	0.267 ± 0.032
RLPVMFWFVCSF	0.638 ± 0.055
RLVRILSTILLN	0.0569 ± 0.034
RLVVSRNFYRLC	0.342 ± 0.0091
RLWLPLSLVLWV	0.421 ± 0.041
RMCEILGIRHLI	0.303 ± 0.016
RMCPWVSVRVGV	0.5825 ± 0.00065
RPRRARLPNFLA	0.0894 ± 0.0014
RPRVAGLMTLVS	0.672 ± 0.0094
RRSRLYKKAGLM	0.296 ± 0.0014
RSIVFRVSRRLN	0.343 ± 0.044
RTKIKKKIMKNI	0.651 ± 0.037
RVCCLSFFFVFL	0.551 ± 0.027
RVCYQIAISLPI	0.542 ± 0.03
RVDVSVLWNRRS	0.511 ± 0.013
RVEPYDLARRVL	0.71 ± 0.018
RVITRMLLMVIR	0.47449 ± 0.00047
RVPCCLSFVPVC	0.5362 ± 0.0037
RVSECVSVVGWM	0.7147 ± 0.0044
RVYLLGLFVRSG	0.574 ± 0.033
RWCLELLWITSC	0.0678 ± 0.011
RWPLVIRSLIVF	0.233 ± 0.01
RWRRWCVVLFVV	0.0816 ± 0.01
RYVFAFRRNYFC	0.299 ± 0.038
RYVVVGACIQVV	0.4511 ± 0.003
SDAIKITFIIHN	0.586 ± 0.0065

Each sequence was assayed on Saccharomyces cerevisiae in the same assay as above. Settings: genetic background: wild type; temperature: 30 C.

Sequence	protein stability index
PIHILTHTYIGR	0.738 ± 0.018
PILRGRPTPAIL	0.708 ± 0.021
PLLVVPVPRALY	0.382 ± 0.021
PLYFSVFSLLFL	0.473 ± 0.012
PPLLLFLSLAFL	0.381 ± 0.054
PPPLPPPSPSRP	0.421 ± 0.0055
PPPPPPLPSSFP	0.449 ± 0.026
PPPYPPPPARSL	0.5 ± 0.014
PPRPLHPPCRPP	0.702 ± 0.013
PPSPPLPPPSPF	0.34 ± 0.046
PPSPPPPPPSPF	0.304 ± 0.025
PRHERPPRDNGH	0.709 ± 0.025
PRPSPPLPPPSS	0.4726 ± 0.0028
PRRVTVPGVPPL	0.71 ± 0.014
PRSLHVLSRFLP	0.691 ± 0.018
PSRRLRHFATSP	0.741 ± 0.023
PTFSPSLPPPRS	0.3693 ± 0.0019
PVTAVYFVLYIW	0.251 ± 0.03
PYLSAPLVATLS	0.3853 ± 0.0035
QDQWINTSLELS	0.751 ± 0.056
QLIDVGLLNCAA	0.498 ± 0.079
QWTVRNQGVMQR	0.73 ± 0.017
QYRLMQKKIVNI	0.229 ± 0.059
RAEASFFLPKVG	0.435 ± 0.07
RAQQRVKERYIE	0.432 ± 0.0045
RCIRRWPYILKL	0.273 ± 0.019

Sequence	protein stability index
RCSLFAKQVVSL	0.453 ± 0.074
RERRISRIPCLS	0.276 ± 0.057
RFHFAAPPHRPS	0.879 ± 0.01
RFIYYCVDVFFS	0.176 ± 0.033
RFLACSIRYLVY	0.332 ± 0.025
RFRFRRTCLYAT	0.197 ± 0.0089
RGAVRVAWYPVL	0.508 ± 0.095
RGDCFLVLCVWR	0.485 ± 0.0086
RGGPPPCPLLAA	0.51 ± 0.034
RGGWVVVLGCVG	0.501 ± 0.016
RGLWAAIPRKCT	0.358 ± 0.028
RGPSQVIVAFFV	0.49 ± 0.016
RGSLLRWFLAAQ	0.443 ± 0.014
RGSRLVPRLLRP	0.71 ± 0.024
RGWWWFVVVLCR	0.329 ± 0.028
RHIRGLNLIKLI	0.161 ± 0.044
RHQTDIVTATQK	0.562 ± 0.097
RHVFLRIKVLNL	0.489 ± 0.085
RIFRCYSFYVVV	0.336 ± 0.021
RILFSPSTFYLF	0.397 ± 0.026
RIRRVMHLYTNN	0.121 ± 0.0048
RISYKTKINELI	0.434 ± 0.043
RIVLRPPFNSVA	0.367 ± 0.077
RKKKRNKKKMIM	0.522 ± 0.044
RLDAPGLSRTEN	0.513 ± 0.12
RLFYRLSFVYFL	0.2655 ± 0.0014

Sequence	protein stability index
RLLLLLTCIIYI	0.256 ± 0.015
RLPVMFWFVCSF	0.506 ± 0.042
RLVRILSTILLN	0.177 ± 0.049
RLVVSRNFYRLC	0.304 ± 0.1
RLWLPLSLVLWV	0.427 ± 0.029
RMCEILGIRHLI	0.245 ± 0.061
RMCPWVSVRVGV	0.485 ± 0.0071
RPRRARLPNFLA	0.0979 ± 0.012
RPRVAGLMTLVS	0.5 ± 0.0055
RRSRLYKKAGLM	0.301 ± 0.064
RSIVFRVSRRLN	0.277 ± 0.034
RTKIKKKIMKNI	0.515 ± 0.062
RVCCLSFFFVFL	0.517 ± 0.024
RVCYQIAISLPI	0.495 ± 0.016
RVDVSVLWNRRS	0.4857 ± 0.0047
RVEPYDLARRVL	0.726 ± 0.0081
RVITRMLLMVIR	0.43 ± 0.036
RVPCCLSFVPVC	0.452 ± 0.033
RVSECVSVVGWM	0.562 ± 0.14
RVYLLGLFVRSG	0.491 ± 0.0076
RWCLELLWITSC	0.162 ± 0.015
RWPLVIRSLIVF	0.2944 ± 0.0027
RWRRWCVVLFVV	0.117 ± 0.012
RYVFAFRRNYFC	0.223 ± 0.015
RYVVVGACIQVV	0.37 ± 0.011
SDAIKITFIIHN	0.473 ± 0.062

From the supplement of paper PMC10724198
